Measured values from US20090298769A1.
Each block holds one substance with its values, some of them ahead of it.

Columns and labels:
[1] = target: DiYF β3 integrin (αvβ3 with β3 Tyr747Phe and Tyr759Phe) on lung endothelial cells of knock-in mice (mouse) (UniProt P43406); assay: flow cytometry, FITC-fibrinogen on DiYF mouse lung EC
[2] = target: αvβ3 integrin, wild type, on mouse lung endothelial cells (mouse) (UniProt P43406); assay: flow cytometry, FITC-fibrinogen on WT mouse lung EC
[3] = target: VEGFR-2 of mouse lung endothelial cells (mouse) (UniProt P35918); assay: cell-based or functional assay
Chain of VEGFR-2 of mouse lung endothelial cells (mouse) (P35918 20-1345): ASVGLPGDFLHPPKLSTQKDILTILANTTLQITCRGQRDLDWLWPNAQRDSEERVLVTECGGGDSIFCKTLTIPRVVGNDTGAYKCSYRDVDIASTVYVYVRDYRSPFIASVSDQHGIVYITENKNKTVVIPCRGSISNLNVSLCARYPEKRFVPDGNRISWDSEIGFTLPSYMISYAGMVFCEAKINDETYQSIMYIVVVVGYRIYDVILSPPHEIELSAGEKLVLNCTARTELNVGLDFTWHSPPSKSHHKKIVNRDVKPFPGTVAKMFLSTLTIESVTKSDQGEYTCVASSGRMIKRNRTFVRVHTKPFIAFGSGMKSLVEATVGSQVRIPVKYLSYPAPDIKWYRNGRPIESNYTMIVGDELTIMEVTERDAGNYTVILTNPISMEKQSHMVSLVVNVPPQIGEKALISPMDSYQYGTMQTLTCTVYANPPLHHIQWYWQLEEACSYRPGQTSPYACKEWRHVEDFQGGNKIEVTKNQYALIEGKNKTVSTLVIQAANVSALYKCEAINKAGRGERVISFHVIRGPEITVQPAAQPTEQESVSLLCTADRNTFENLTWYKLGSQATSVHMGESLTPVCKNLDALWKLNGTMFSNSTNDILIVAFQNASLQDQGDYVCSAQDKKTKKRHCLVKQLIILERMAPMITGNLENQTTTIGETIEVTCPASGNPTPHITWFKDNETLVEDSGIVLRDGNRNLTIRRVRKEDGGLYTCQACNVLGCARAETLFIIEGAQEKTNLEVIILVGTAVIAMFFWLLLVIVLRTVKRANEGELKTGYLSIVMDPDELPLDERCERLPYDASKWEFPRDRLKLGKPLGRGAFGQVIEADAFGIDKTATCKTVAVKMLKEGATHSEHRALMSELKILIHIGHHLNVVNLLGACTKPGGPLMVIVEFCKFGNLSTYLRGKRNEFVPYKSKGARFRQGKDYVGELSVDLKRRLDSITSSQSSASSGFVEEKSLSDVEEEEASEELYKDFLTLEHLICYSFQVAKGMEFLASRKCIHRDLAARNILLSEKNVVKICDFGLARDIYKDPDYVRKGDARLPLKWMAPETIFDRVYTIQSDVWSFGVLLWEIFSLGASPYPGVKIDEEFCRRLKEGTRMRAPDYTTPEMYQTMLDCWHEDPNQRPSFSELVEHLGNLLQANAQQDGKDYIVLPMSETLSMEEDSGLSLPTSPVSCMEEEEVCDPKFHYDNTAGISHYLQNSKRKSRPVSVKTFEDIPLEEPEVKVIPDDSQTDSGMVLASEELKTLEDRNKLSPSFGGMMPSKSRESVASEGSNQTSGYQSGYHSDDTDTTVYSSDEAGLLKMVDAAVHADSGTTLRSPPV

[4] = target: DiYF β3 integrin (αvβ3 with β3 Tyr747Phe and Tyr759Phe) on lung endothelial cells of knock-in mice (mouse) (UniProt P43406); assay: flow cytometry, WOW-1 Fab on DiYF mouse lung EC
[5] = target: αvβ3 integrin on human endothelial cells (HUVEC; vessels of human prostate tissue) (human) (UniProt P06756); assay: flow cytometry, WOW-1 Fab on HUVEC
[6] = target: αvβ3 integrin on human endothelial cells (HUVEC; vessels of human prostate tissue) (human) (UniProt P06756); assay: immunohistochemistry of human prostate tissue
[7] = target: αvβ3 integrin on human endothelial cells (HUVEC; vessels of human prostate tissue) (human) (UniProt P06756); assay: flow cytometry, WOW-1 Fab on HUVEC transfected with dominant negative c-Src
[8] = target: αvβ3 integrin, wild type, on mouse lung endothelial cells (mouse) (UniProt P43406); assay: flow cytometry, WOW-1 Fab on WT mouse lung EC
[9] = target: αvβ3 integrin on human endothelial cells (HUVEC; vessels of human prostate tissue) (human) (UniProt P06756); assay: flow cytometry (FACS), WOW-1 Fab on HUVEC
[10] = target: DiYF β3 integrin (αvβ3 with β3 Tyr747Phe and Tyr759Phe) on lung endothelial cells of knock-in mice (mouse) (UniProt P43406); assay: cell-based or functional assay

Chain of DiYF β3 integrin (αvβ3 with β3 Tyr747Phe and Tyr759Phe) on lung endothelial cells of knock-in mice (mouse) (P43406 31-1044, chain 1 of 2): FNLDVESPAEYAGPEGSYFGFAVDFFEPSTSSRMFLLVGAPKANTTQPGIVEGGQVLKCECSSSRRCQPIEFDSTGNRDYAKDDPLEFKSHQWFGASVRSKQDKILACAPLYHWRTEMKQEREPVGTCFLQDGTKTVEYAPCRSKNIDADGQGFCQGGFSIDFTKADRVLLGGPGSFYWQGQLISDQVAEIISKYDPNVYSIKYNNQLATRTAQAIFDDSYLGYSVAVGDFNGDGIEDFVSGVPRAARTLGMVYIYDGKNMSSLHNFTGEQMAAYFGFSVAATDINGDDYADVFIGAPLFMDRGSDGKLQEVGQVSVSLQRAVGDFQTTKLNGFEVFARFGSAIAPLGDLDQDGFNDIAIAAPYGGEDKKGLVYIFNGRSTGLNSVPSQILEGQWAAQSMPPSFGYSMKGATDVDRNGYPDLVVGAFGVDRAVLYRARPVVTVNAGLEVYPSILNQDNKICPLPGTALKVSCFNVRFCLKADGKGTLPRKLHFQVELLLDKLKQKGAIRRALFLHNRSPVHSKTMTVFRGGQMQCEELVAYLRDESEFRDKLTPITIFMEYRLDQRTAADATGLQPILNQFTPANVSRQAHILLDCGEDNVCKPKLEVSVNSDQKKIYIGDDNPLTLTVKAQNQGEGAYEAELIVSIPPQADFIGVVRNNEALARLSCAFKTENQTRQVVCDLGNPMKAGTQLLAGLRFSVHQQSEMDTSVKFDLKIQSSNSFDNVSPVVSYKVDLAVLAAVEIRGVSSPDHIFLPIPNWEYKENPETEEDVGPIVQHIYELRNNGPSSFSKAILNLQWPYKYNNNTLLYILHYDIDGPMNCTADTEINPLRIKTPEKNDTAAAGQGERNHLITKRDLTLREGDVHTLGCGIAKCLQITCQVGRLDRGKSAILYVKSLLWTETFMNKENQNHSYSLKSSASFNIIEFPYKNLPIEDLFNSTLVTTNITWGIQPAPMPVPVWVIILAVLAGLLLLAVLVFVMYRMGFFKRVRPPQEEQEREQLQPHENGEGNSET
Chain of DiYF β3 integrin (αvβ3 with β3 Tyr747Phe and Tyr759Phe) on lung endothelial cells of knock-in mice (mouse) (O54890 26-787 Y772F/Y784F, chain 2 of 2, further chain): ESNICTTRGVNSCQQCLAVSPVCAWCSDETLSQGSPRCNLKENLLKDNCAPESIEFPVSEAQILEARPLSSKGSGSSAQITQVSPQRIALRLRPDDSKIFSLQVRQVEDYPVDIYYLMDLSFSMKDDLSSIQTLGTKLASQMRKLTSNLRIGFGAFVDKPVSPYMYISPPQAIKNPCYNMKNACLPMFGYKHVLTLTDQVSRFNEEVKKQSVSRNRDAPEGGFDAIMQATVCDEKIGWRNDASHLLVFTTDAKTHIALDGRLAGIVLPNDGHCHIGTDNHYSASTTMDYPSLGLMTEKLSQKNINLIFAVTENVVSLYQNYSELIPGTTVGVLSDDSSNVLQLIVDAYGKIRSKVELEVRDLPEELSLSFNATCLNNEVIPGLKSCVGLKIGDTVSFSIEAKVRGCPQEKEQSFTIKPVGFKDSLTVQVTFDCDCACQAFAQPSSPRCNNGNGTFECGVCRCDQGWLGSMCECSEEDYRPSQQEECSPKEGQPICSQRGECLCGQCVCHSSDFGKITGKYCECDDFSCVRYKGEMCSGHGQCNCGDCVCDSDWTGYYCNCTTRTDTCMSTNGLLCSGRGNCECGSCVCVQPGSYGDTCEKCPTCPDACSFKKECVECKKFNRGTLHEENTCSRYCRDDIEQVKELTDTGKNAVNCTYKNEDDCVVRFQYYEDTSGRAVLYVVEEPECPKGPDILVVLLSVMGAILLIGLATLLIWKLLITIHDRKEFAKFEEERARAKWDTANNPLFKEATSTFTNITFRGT
Chain of αvβ3 integrin, wild type, on mouse lung endothelial cells (mouse) (P43406 31-1044, chain 1 of 2): as the sequence (P43406 31-1044, chain 1 of 2) above
Chain of αvβ3 integrin, wild type, on mouse lung endothelial cells (mouse) (O54890 26-787, chain 2 of 2, further chain): as the sequence (O54890 26-787 Y772F/Y784F, chain 2 of 2, further chain) above, with F747Y, F759Y counted along it

- fold increase of binding on MnCl2 stimulation [1]: 17 fold
- fold increase of binding on VEGF stimulation [1]: 3 fold
- fold increase of binding on MnCl2 stimulation [2]: > 40 fold
- fold increase of binding on VEGF stimulation [2]: > 6 fold
Substance: FITC-labeled fibrinogen (ligand)

- VEGFR-2 phosphorylation in DiYF EC [3]: 2.5 fold
- VEGFR-2 phosphorylation in WT EC [3]: 6 fold
Substance: VEGF-A165 (ligand)

Substance: WOW-1 Fab
- fold increase of binding on MnCl2 stimulation [4]: 14 fold
- fold increase of binding on VEGF stimulation [4]: 3.5 fold
- fold increase of binding on VEGF stimulation [5]: 6 fold
- fold increase of WOW-1 density, prostate carcinoma against normal prostate tissue [6]: 2.7 fold
- fold reduction of VEGF-triggered αvβ3 activation (WOW-1 binding) by dominant negative c-Src [7]: > 2 fold
- fold increase of binding on MnCl2 stimulation [8]: 30 fold
- fold increase of binding on VEGF stimulation [8]: 9 fold
- fold increase of binding on VEGF-A165 stimulation [9]: 6 fold

- fold decrease in cell adhesion to vitronectin, DiYF EC against WT EC [10]: 2 fold
Substance: vitronectin (ligand)
